Source: patent publication US20230105457A1, “Immunogenic Compounds For Treatment Of Adrenal Cancer” (ENTEROME S.A., priority 2019, published 2023)
Where two headings read alike, the source gives them in different places.

Assays:
[1] = target: T1, HLA-A*0201 molecule expressed on human tumor cell line T2 (human); test: T2 cell HLA-A2 stabilisation, FACS; peptide at 100 µM
T1 construct: surface HLA-A2 read with anti-HLA-A2 antibody BB7.2-PE by FACS; also called HLA-A2

[2] = target: T1, HLA-A*0201 molecule expressed on human …; test: T2 cell HLA-A2 stabilisation, FACS; peptide at 6.25 µM
[3] = target: T1, HLA-A*0201 molecule expressed on human …; test: T2 cell HLA-A2 stabilisation, FACS; peptide at 50 µM
[4] = target: T1, HLA-A*0201 molecule expressed on human …; test: T2 cell HLA-A2 stabilisation, FACS; peptide at 1.5625 µM
[5] = target: T1, HLA-A*0201 molecule expressed on human …; test: T2 cell HLA-A2 stabilisation, FACS; ratio of 20% concentration to that of HIV pol 589-597 (lower = stronger)
[6] = target: T1, HLA-A*0201 molecule expressed on human …; test: T2 cell HLA-A2 stabilisation, FACS; peptide at 3.125 µM
[7] = target: T1, HLA-A*0201 molecule expressed on human …; test: T2 cell HLA-A2 stabilisation, FACS; 20% of signal of HIV pol 589-597 at 100 µM
[8] = target: T1, HLA-A*0201 molecule expressed on human …; test: T2 cell HLA-A2 stabilisation, FACS; peptide at 25 µM
[9] = target: T1, HLA-A*0201 molecule expressed on human …; test: T2 cell HLA-A2 stabilisation, FACS; ratio of 20% concentration to that of HIV pol 589-597 (lower = stronger); remark: listed apart in the source
[10] = target: T1, HLA-A*0201 molecule expressed on human …; test: T2 cell HLA-A2 stabilisation, FACS; 20% of signal of HIV pol 589-597 at 100 µM; remark: listed apart in the source

## LMDLSTTEV [FOXM1-B2]
[1]
  mean relative fluorescence intensity: 105 relative (HIV peptide = 100)
[2]
  mean relative fluorescence intensity: 33.5 relative (HIV peptide = 100)
[3]
  mean relative fluorescence intensity: 91.5 relative (HIV peptide = 100)
[4]
  mean relative fluorescence intensity: 7.2 relative (HIV peptide = 100)
[5]
  In vitro binding affinity (relative affinity): 1.3
[6]
  mean relative fluorescence intensity: 12.7 relative (HIV peptide = 100)
[7]
  Concentration of peptide that induces 20% of HLA-A2 expression: 6.7 µM
[8]
  mean relative fluorescence intensity: 98.2 relative (HIV peptide = 100)

## LMDLSTTPL [FOXM1-H2]
[1]
  mean relative fluorescence intensity: 77.6 relative (HIV peptide = 100)
[2]
  mean relative fluorescence intensity: 19.7 relative (HIV peptide = 100)
[3]
  mean relative fluorescence intensity: 62.5 relative (HIV peptide = 100)
[4]
  mean relative fluorescence intensity: 5.3 relative (HIV peptide = 100)
[5]
  In vitro binding affinity (relative affinity): 2.5
[6]
  mean relative fluorescence intensity: 0.9 relative (HIV peptide = 100)
[7]
  Concentration of peptide that induces 20% of HLA-A2 expression: 12.6 µM
[8]
  mean relative fluorescence intensity: 65.4 relative (HIV peptide = 100)

## FMPFGFILPI [IL13RA2-B6]
[9]
  In vitro binding affinity (relative affinity): 6.86
[10]
  Concentration of peptide that induces 20% of HLA-A2 expression: 5.9 µM

## FMPFGFILV [IL13RA2-B2 (SEQ ID NO: 64, Example 13)]
[9]
  In vitro binding affinity (relative affinity): 5.97
[10]
  Concentration of peptide that induces 20% of HLA-A2 expression: 4.5 µM

## YMPFGFILV [IL13RA2-B4]
[9]
  In vitro binding affinity (relative affinity): 5.24
[10]
  Concentration of peptide that induces 20% of HLA-A2 expression: 4.5 µM

## YLPFGFILV [IL13RA2-B5]
[9]
  In vitro binding affinity (relative affinity): 1.76
[10]
  Concentration of peptide that induces 20% of HLA-A2 expression: 1.5 µM

## FMPFGFILGV [IL13RA2-B3]
[9]
  In vitro binding affinity (relative affinity): 4.39
[10]
  Concentration of peptide that induces 20% of HLA-A2 expression: 3.3 µM

## GLLGEFLQI [BIRC5-B3]
[1]
  mean relative fluorescence intensity: 35 relative (HIV peptide = 100)
[3]
  mean relative fluorescence intensity: 29.8 relative (HIV peptide = 100)
[4]
  mean relative fluorescence intensity: 9.4 relative (HIV peptide = 100)
[5]
  In vitro binding affinity (relative affinity): 7
[6]
  mean relative fluorescence intensity: 8.9 relative (HIV peptide = 100)
[7]
  Concentration of peptide that induces 20% of HLA-A2 expression: 22.9 µM
[8]
  mean relative fluorescence intensity: 20.9 relative (HIV peptide = 100)

## RVSSYLVPI [FOXM1-H]
[1]
  mean relative fluorescence intensity: 83.8 relative (HIV peptide = 100)
[2]
  mean relative fluorescence intensity: 0 relative (HIV peptide = 100)
[3]
  mean relative fluorescence intensity: 30.7 relative (HIV peptide = 100)
[4]
  mean relative fluorescence intensity: 0 relative (HIV peptide = 100)
[5]
  In vitro binding affinity (relative affinity): 3.7
[6]
  mean relative fluorescence intensity: 0 relative (HIV peptide = 100)
[7]
  Concentration of peptide that induces 20% of HLA-A2 expression: 37.6 µM
[8]
  mean relative fluorescence intensity: 10.5 relative (HIV peptide = 100)

## WLPFGFILI [IL13RA2-H]
[9]
  In vitro binding affinity (relative affinity): 78.8
[1]
  mean relative fluorescence intensity: 26.5 relative (HIV peptide = 100)
[2]
  mean relative fluorescence intensity: 9.6 relative (HIV peptide = 100)
[3]
  mean relative fluorescence intensity: 14.2 relative (HIV peptide = 100)
[4]
  mean relative fluorescence intensity: 3 relative (HIV peptide = 100)
[10]
  Concentration of peptide that induces 20% of HLA-A2 expression: 62.3 µM
[6]
  mean relative fluorescence intensity: 3.7 relative (HIV peptide = 100)
[8]
  mean relative fluorescence intensity: 11.2 relative (HIV peptide = 100)

## RLSSYLVEI [FOXM1-B]
[1]
  mean relative fluorescence intensity: 47.5 relative (HIV peptide = 100)
[2]
  mean relative fluorescence intensity: 0 relative (HIV peptide = 100)
[3]
  mean relative fluorescence intensity: 21.3 relative (HIV peptide = 100)
[4]
  mean relative fluorescence intensity: 0 relative (HIV peptide = 100)
[5]
  In vitro binding affinity (relative affinity): 4.6
[6]
  mean relative fluorescence intensity: 0 relative (HIV peptide = 100)
[7]
  Concentration of peptide that induces 20% of HLA-A2 expression: 46.7 µM
[8]
  mean relative fluorescence intensity: 7.6 relative (HIV peptide = 100)

## YTLGEFLYI [BIRC5-B2]
[1]
  mean relative fluorescence intensity: 58 relative (HIV peptide = 100)
[2]
  mean relative fluorescence intensity: 9 relative (HIV peptide = 100)
[3]
  mean relative fluorescence intensity: 54.4 relative (HIV peptide = 100)
[5]
  In vitro binding affinity (relative affinity): 4.5
[6]
  mean relative fluorescence intensity: 6.6 relative (HIV peptide = 100)
[7]
  Concentration of peptide that induces 20% of HLA-A2 expression: 14.7 µM
[8]
  mean relative fluorescence intensity: 29.6 relative (HIV peptide = 100)
